The target of assay [1] is complement iC3b (UniProt P01024). In words: SPR (BIAcore), iC3b on CM5 chip, A domain flowed; linear transformation, mean±SD, n=2.
Assay [2] concerns the target fibrinogen (UniProt P02671). Briefly: SPR (BIAcore), fibrinogen on CM5 chip, A domain flowed; linear transformation, mean±SD, n=2.
The target of assay [3] is CD54 (ICAM-1) (UniProt P05362). Briefly: SPR (BIAcore), CD54 on CM5 chip, A domain flowed; linear transformation, mean±SD, n=2.
For assay [4], the target named is complement iC3b (UniProt P01024). In words: SPR (BIAcore), iC3b on CM5 chip, A domain flowed.

Sequence of CD54 (ICAM-1) (P05362 28-480 limits assumed): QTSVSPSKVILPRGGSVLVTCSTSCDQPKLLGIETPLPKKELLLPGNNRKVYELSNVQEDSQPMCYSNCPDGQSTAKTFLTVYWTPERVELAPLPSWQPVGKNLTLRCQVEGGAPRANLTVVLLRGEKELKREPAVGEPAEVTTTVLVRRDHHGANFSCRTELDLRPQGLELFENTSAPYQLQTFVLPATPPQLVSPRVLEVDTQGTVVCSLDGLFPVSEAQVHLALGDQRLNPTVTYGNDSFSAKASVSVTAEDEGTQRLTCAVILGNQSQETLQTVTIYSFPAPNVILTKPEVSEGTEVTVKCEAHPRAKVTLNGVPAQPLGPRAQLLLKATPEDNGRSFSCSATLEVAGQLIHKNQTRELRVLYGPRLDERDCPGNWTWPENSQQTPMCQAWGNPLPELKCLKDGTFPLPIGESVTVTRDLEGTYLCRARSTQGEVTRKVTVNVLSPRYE
Sequence of fibrinogen (P02671 20-629 limits assumed, chain 1 of 3): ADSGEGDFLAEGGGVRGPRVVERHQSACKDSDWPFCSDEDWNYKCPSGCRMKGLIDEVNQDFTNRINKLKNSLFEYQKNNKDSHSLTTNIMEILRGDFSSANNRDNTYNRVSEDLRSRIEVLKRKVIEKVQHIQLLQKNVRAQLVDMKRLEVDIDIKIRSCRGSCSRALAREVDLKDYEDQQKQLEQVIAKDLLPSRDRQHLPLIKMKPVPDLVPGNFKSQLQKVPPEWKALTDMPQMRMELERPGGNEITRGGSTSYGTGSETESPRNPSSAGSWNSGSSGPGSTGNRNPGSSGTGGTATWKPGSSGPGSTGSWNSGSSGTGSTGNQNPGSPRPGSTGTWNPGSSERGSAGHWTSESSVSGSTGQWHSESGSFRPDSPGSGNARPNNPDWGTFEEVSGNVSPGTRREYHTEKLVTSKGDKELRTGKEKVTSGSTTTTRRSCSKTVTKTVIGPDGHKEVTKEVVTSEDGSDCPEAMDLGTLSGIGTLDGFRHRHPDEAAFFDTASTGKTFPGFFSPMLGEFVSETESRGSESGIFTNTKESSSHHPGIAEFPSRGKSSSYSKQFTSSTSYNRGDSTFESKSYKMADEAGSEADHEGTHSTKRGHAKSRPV
Sequence of fibrinogen (P02675 31-491 limits assumed, chain 2 of 3, further chain): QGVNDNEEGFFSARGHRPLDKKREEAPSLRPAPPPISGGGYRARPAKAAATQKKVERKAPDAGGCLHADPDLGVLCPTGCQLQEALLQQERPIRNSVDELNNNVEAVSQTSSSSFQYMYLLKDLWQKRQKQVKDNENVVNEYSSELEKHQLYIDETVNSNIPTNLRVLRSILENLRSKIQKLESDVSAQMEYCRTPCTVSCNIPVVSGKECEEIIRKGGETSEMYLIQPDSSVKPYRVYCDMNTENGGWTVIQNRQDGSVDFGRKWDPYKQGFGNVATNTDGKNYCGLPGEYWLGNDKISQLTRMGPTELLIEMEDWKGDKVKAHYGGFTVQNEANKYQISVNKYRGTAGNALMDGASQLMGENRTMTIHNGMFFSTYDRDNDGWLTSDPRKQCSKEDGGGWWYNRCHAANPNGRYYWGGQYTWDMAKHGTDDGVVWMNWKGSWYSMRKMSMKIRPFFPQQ
Sequence of fibrinogen (P02679 other isoform, or with tags, fused parts or gaps limits assumed, chain 3 of 3, further chain): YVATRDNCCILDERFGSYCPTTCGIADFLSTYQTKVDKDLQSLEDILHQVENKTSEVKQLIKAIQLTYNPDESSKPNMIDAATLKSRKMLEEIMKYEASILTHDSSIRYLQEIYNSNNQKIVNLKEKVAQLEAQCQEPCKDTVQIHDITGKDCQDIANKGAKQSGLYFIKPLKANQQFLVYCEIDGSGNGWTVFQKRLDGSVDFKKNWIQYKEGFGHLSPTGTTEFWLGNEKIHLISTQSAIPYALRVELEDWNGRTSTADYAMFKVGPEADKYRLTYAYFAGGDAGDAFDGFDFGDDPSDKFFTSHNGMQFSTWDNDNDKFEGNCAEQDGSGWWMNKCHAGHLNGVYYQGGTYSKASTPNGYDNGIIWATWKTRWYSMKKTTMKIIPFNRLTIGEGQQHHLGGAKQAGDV

With “variant CD11b A domain consisting of amino acids E123 to K315 (11bA^123-315) (from UniProt P11215 139-331) (receptor)”, the figures for the Kd in assay [1], in assay [2] and in assay [3] were 460 nM, 250 nM and 220 nM, respectively.
“variant CD11b A domain with an Ile to Gly change at residue 316 (11bA^I→G) (from UniProt P11215 139-337) (receptor)” yielded a Kd in assay [4] of 660 nM.

(Values after US20030109691A1.)
